Experiment [1] has as its system human leukocytes in culture. As to the kind of experiment: Cytokine production (IL-10 or IFN-γ) in human leukocytes in culture. To be noted: concentrations within five orders of magnitude of 10 μg/mL. The format is cell-based. On the procedure:
Leukocytes were prepared from fresh whole human blood, collected and spun in the presence of Ficoll for 30 minutes at 1500×g. The mononuclear cell layer was transferred to a new tube where it was washed once with RPMI 1640. The mononuclear cells were plated at a density of 1×10^5 per well of a 96-well plate in 50 μL of RPMI 1640 per well. MSC-CM was then immediately added to each well and allowed to incubate in the presence of the mononuclear cells for 16 hours. After incubation, 50 μL of RPMI 1640 containing 10 μg/mL of LPS was added to each well and allowed to incubate for an additional 5 hours. The resultant supernatants were collected and analyzed via ELISA for human interleukin-10 (IL-10). This procedure of incubating leukocytes with MSC-CM to determine IL-10 stimulating activity will be henceforth referred to as the “IL-10 assay”.
Preparations and use of MSC-CM, Fb-CM, LPS-stimulated MSC-CM, leukocytes were as described in Examples 1-3 and the Figures. These conditioned media preparations were added to leukocyte cultures for 16 hours, after which the culture was stimulated with LPS at 10 μg/ml. The medium from this culture was collected 24 hours after LPS stimulation of leukocytes and analyzed using an IFN-γ ELISA.

Experiment [2] relates to human peripheral blood mononuclear cells (PBMCs). The experiment is described as follows: PBMC potency assay (IL-10 assay): IL-10 secretion by LPS-stimulated PBMCs, ELISA. The format is cell-based. To be noted: recombinant molecules diluted in RPMI 1640. The source says:
FIG. 1: MSC conditioned medium causes peripheral blood mononuclear cells to secrete IL-10 in response to LPS, providing the basis for differential gene expression analysis to identify genes responsible for the increased activity. (a) Generalized schematic of EPS methodology. Protein products are derived from various cell types in the form of conditioned media and screened for activity in an in vitro potency assay. […] Recombinant protein products of the enriched gene list are then screened in a potency assay and the candidates with the highest activity are assessed for activity in vivo. (b) In vitro potency assay. This assay entails incubating primary human peripheral blood mononuclear cells (PBMCs) in the presence of protein products (e.g., conditioned medium from a cell) for 16 hours, followed by stimulation of the PBMCs with LPS for five hours, and measurement of IL-10 secretion into the supernatant via ELISA. (c) Time course of IL-10 expression from PBMCs when incubated with either bone marrow stromal cell conditioned medium (BMSC-CM) or unconditioned medium (DMEM) in the potency assay. (d) Comparison of potency assay activity of conditioned medium from normal human dermal fibroblasts (FB-CM), BMSCs (BMSC-CM) and BMSCs preincubated with LPS prior to conditioning (BMSCLPS-CM). * p<0.001 compared to FB-CM, ** p<0.001 compared to BMSC-CM. (e) Schematic of the differential gene expression comparison strategy to select for genes uniquely expressed at high levels in LPS stimulated MSCs (MSCLPS) compared to MSCs and fibroblasts (FBs). Analysis was then conducted on the genes identified to select for genes that were most likely to be responsible for secreted proteins. MSCLPS, LPS stimulated MSC; FB, fibroblast. […]
Leukocytes were prepared from fresh whole human blood, collected and spun in the presence of Ficoll for 30 minutes at 1500×g. […] The resultant supernatants were collected and analyzed via ELISA for human interleukin-10 (IL-10). […]
A general note: ELISA stands for enzyme-linked immunosorbent assay.

The test system of experiment [3] is colitic mice (TNBS colitis). The experiment is described as follows: TNBS colitis in mice, colon histopathology. It counts as in vivo. To be noted: 3 μg protein twice over 24 h; sacrifice at day 2; compared to vehicle (saline). On the procedure:
FIG. 6: Administered MFAP5 and LGALS3BP protect mice from developing TNBS colitis. Mice were presensitized via the skin with 1% TNBS one week prior to intra-rectal administration of 3 mg of TNBS per mouse in a mixture of 50% EtOH and 50% sterile water to induce colitis. Mice were treated with 3 μg each of MFAP5, LGALS3BP and GALNT1 twice over a 24 hour period, once in conjunction with the TNBS administration and once 24 hours later. Mice were then sacrificed at day 2 and tissue collected for analysis. As expected, mice treated with vehicle (saline) developed extensive inflammation of the colon with loss of crypts and frank necrosis of the intestinal epithelium.
MFAP5, LGALS3BP and PENK all protected the colonic epithelium from the hallmark features of TNBS colitis: necrosis, inflammatory infiltrate and loss of crypts. Especially at the microscopic level, the tissue of the MFAP5, LGALS3BP and PENK treated animals looked mostly normal with minor foci of inflammation and edema.

In experiment [4] the test system is BALB/cJ mice challenged with a sub-lethal dose of LPS. As to the kind of experiment: In vivo LPS assay, sub-lethal LPS model: serum cytokines and lung histology. To be noted: for serum IL-10 levels / serum TNF-α: 3 μg protein or 1 mL 1×BMSC-CM IP, twice, 100 μg LPS, 48 h later, compared to saline. On the procedure:
FIG. 8: In vivo hit screen and survival study. (a) Schematic of the in vivo LPS assay. Proteins were administered intraperitoneal (IP) at the concentration that elicited the strongest effect in vitro, followed by IP administration of LPS in conjunction with a second dose of the proteins 16 hours later. Two days after the combined LPS and second protein dose, the mice were sacrificed and assessed for changes in serum cytokines and tissue histology. (b) Serum IL-10 levels of BALB/cJ mice subjected to the in vivo LPS assay. * p<0.001 compared to saline. (c) Serum TNF-α levels of BALB/cJ mice subjected to the in vivo LPS assay. * p<0.001 compared to saline, ** p<0.05 compared to BMSC-CM. (d) Representative micrographs of lung tissue from mice subjected to the in vivo LPS assay stained with hematoxylin and eosin. (e) Survival of mice subjected to a lethal dose of LPS i.p. (350 μg) concurrently with i.p. saline vehicle (bold dark blue line), 5 μg Anti-TNF-α antibody (thin dark blue line), 4 μg PENK (bold light blue line) or 4 μg MFAP5 (thin light blue line). Scale bar=200 μm.
All procedures were performed in accordance with the animal rights policies of the Massachusetts General Hospital Subcommittee on Research Animal Care. For the sub-lethal LPS model, eight week old female BALB/cJ mice (n≧3) (Jackson Laboratories, Bar Harbor, Me.) were administered an initial dose of either vehicle or one of the experimental therapies IP: 200 μL of saline (vehicle), or 3 μg of protein (e.g., GALNT1, LGALS3BP, MFAP5 or PENK) diluted in 200 μL of saline, or 1 mL of 1×BMSC-CM. 16 hours later, mice received a second dose of either vehicle or therapy in conjunction with a dose of 100 μg of LPS (E. coli 0111:B4; Sigma, St. Louis, Mo.) diluted in physiological saline. 48 hours later, mice were sacrificed and tissue and blood were collected for analysis. Serum was tested for the presence of IL-10 and TNF-α via ELISA and lungs, livers and kidneys of the animals were preserved for hematoxylin and eosin staining. For the lethal LPS model, eight week old female BALB/cJ mice (n≧5) were co-administered a lethal dose of LPS (350 μg LPS in 100 μL physiological saline) and either vehicle (negative control), 5 μg anti-TNF-α (positive control; R&D Systems, Minneapolis, Minn.), 4 μg MFAP5 diluted in 100 μL of physiological saline, or 4 μg of PENK diluted in 100 μL of physiological saline. Mice were monitored for survival for seven days (168 hours).

Entries after “also recorded” stand apart in the source; their conditions may differ.

B1: CRLF1: isolated and purified molecular product of the gene CRLF1 (protein, UniProt O75462 38-422, looked up)
Cytokine receptor-like factor …: AHTAVISPQDPTLLIGSSLLATCSVHGDPPGATAEGLYWTLNGRRLPPELSRVLNASTLALALANLNGSRQRSGDNLVCHARDGSILAGSCLYVGLPPEKPVNISCWSKNMKDLTCRWTPGAHGETFLHTNYSLKYKLRWYGQDNTCEEYHTVGPHSCHIPKDLALFTPYEIWVEATNRLGSARSDVLTLDILDVVTTDPPPDVHVSRVGGLEDQLSVRWVSPPALKDFLFQAKYQIRYRVEDSVDWKVVDDVSNQTSCRLAGLKPGTVYFVQVRCNPFGIYGSKKAGIWSEWSHPTAASTPRSERPGPGGGACEPRGGEPSSGPVRRELKQFLGWLKKHAYCSNLSFRLYDQWRAWMQKSHKTRNQDEGILPSGRRGTARGPAR
As to B1, the “promote IL-10 production or suppress IFN-γ production” value in experiment [1] is “either promote IL-10 production or suppress IFN-γ production”.

B2: TFPI2: isolated and purified molecular product of the gene TFPI2 (protein, UniProt P48307 23-235, looked up)
Tissue factor pathway …: DAAQEPTGNNAEICLLPLDYGPCRALLLRYYYDRYTQSCRQFLYGGCEGNANNFYTWEACDDACWRIEKVPKVCRLQVSVDDQCEGSTEKYFFNLSSMTCEKFFSGGCHRNRIENRFPDEATCMGFCAPKKIPSFCYSPKDEGLCSANVTRYYFNPRYRTCDAFTYTGCGGNDNNFVSREDCKRACAKALKKKKKMPKLRFASRIRKIRKKQF
As for B2, the “promote IL-10 production or suppress IFN-γ production” value in experiment [1] is on record as “either promote IL-10 production or suppress IFN-γ production”.

B3: LGALS3BP: Soluble galectin 3 binding protein, highly glycosylated secreted protein; recombinant form tested (protein, UniProt Q08380 19-585, looked up)
Galectin-3-binding protein: VNDGDMRLADGGATNQGRVEIFYRGQWGTVCDNLWDLTDASVVCRALGFENATQALGRAAFGQGSGPIMLDEVQCTGTEASLADCKSLGWLKSNCRHERDAGVVCTNETRSTHTLDLSRELSEALGQIFDSQRGCDLSISVNVQGEDALGFCGHTVILTANLEAQALWKEPGSNVTMSVDAECVPMVRDLLRYFYSRRIDITLSSVKCFHKLASAYGARQLQGYCASLFAILLPQDPSFQMPLDLYAYAVATGDALLEKLCLQFLAWNFEALTQAEAWPSVPTDLLQLLLPRSDLAVPSELALLKAVDTWSWGERASHEEVEGLVEKIRFPMMLPEELFELQFNLSLYWSHEALFQKKTLQALEFHTVPFQLLARYKGLNLTEDTYKPRIYTSPTWSAFVTDSSWSARKSQLVYQSRRGPLVKYSSDYFQAPSDYRYYPYQSFQTPQHPSFLFQDKRVSWSLVYLPTIQSCWNYGFSCSSDELPVLGLTKSGGSDRTIAYENKALMLCEGLFVADVTDFEGWKAAIPSALDTNSSKSTSSFPCPAGHFNGFRTVIRPFYLTNSSGVD
On to B3, for which, in experiment [2], the “increase of IL-10 production compared to 10×MSC-CM” value was “superior to that induced by 10×MSC-CM”. Further, in experiment [3], the “protection from TNBS colitis (colon histopathology)” value is “protect the mice from developing acute colitis; also recorded: significant attenuation of colitis; also recorded: protected from developing extensive colonic inflammation”. In experiment [4], the “serum IL-10 levels” value was “no IL-10 response” and the “serum TNF-α” value is “significantly suppressed”. Besides, the “promote IL-10 production or suppress IFN-γ production” value in experiment [1] is given as “either promote IL-10 production or suppress IFN-γ production”.

B4: UDP-N-acetyl-α-D-galactosamine:polypeptide N-acetylgalactosaminyltransferase 1 (protein, UniProt Q10472 1-559, looked up)
Polypeptide …: MRKFAYCKVVLATSLIWVLLDMFLLLYFSECNKCDEKKERGLPAGDVLEPVQKPHEGPGEMGKPVVIPKEDQEKMKEMFKINQFNLMASEMIALNRSLPDVRLEGCKTKVYPDNLPTTSVVIVFHNEAWSTLLRTVHSVINRSPRHMIEEIVLVDDASERDFLKRPLESYVKKLKVPVHVIRMEQRSGLIRARLKGAAVSKGQVITFLDAHCECTVGWLEPLLARIKHDRRTVVCPIIDVISDDTFEYMAGSDMTYGGFNWKLNFRWYPVPQREMDRRKGDRTLPVRTPTMAGGLFSIDRDYFQEIGTYDAGMDIWGGENLEISFRIWQCGGTLEIVTCSHVGHVFRKATPYTFPGGTGQIINKNNRRLAEVWMDEFKNFFYIISPGVTKVDYGDISSRVGLRHKLQCKPFSWYLENIYPDSQIPRHYFSLGEIRNVETNQCLDNMARKENEKVGIFNCHGMGGNQVFSYTANKEIRTDDLCLDVSKLNGPVTMLKCHHLKGNQLWEYDPVKLTLQHVNSNQCLDKATEEDSQVPSIRDCNGSRSQQWLLRNVTLPEIF
notes: recombinant protein product of the GALNT1 gene, secreted factor of marrow stromal cells
Turning to B4, in experiment [2], the “increase of IL-10 production compared to 10×MSC-CM” value is “superior to that induced by 10×MSC-CM”. Also, the “protection from TNBS colitis (colon histopathology)” value in experiment [3] is “not protected from development of colitis”. Moreover, in experiment [4], the “serum IL-10 levels” value is given as “Significantly elevated” and the “serum TNF-α” value was “not”. Also, the “lung histology (lung protection)” value in experiment [4] (hematoxylin and eosin, sub-lethal LPS model, compared to vehicle) was “moderate protection”. For the same molecule, the “promote IL-10 production or suppress IFN-γ production” value in experiment [1] is reported as “either promote IL-10 production or suppress IFN-γ production”.

(Values after patent US20130052198A1, “ANTI-INFLAMMATORY FACTORS” (THE GENERAL HOSPITAL CORPORATION, priority 2010, published 2013).)
